Assay results taken from the supplement of paper PMC7125110.
± gives the standard error. Variants at the floor of the assay were thinned out.

B1: glmS ribozyme (parent)
chain: AUAAAAGCGCCAGAACUACAGAAAUGUAGUUGACGAGGAGGAGGUUUAUCGAAUUUUCGGCGGAUGCCUCCAAA

Variants of: B1
Assay: self-cleavage kobs at 2500 uM GlcN6P; higher = faster cleavage; RNA array
Settings: with glucosamine-6-phosphate
Method in brief: (§1)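 Over ~14 h at 37 °C, tiles were imaged as glucosamine-6-phosphate (40 μM to 10 mM) in HEPES/KCl/Mg(OAc)2 buffer flowed across sequenced MiSeq chips. The chips carried barcoded ribozyme variants transcribed in situ by E. coli RNA polymerase and tracked with a hybridised Cy3 probe. After normalisation to baseline and to non-cleaving reference variants, one- or two-exponential decay fits of per-tile medians gave kobs. kcat and KM followed from weighted Michaelis–Menten fits across concentrations.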

Variant | self-cleavage kobs at 2500 uM GlcN6P [s⁻¹]
AUAAAAGCGCUAGAACUACAGAAAUGUAGUUGACGAGGAGGAGGUUUAUCGAACUUUCGGCGGAUGACUCCAAA | 0.00025 ± 8e-05
AUAAAAGCGGGAGAACUACAGAAAUGUAGUUGACGCGCAGGAGGUUUAUCGACUUUUCGUCGGAUGCCUCCAAA | < 1e-05
AUAAAAGCGCUAGAACUACAGAAAUGUAAUUGACGAGGAGGAGGUUUAGCGAAUUUUCGGCAGAUGGCUCCAAA | < 1e-05
AUAAAAGCGGAAGAACUACAGAAAUGUAGUUGCCGUGGAGGAGGUUUAUCGUCUUAUCGGCUGAUGCCUCCAAA | < 1e-05
AUAAAAGCGCUAGGACUACAGAAAUGUAGUUGACGAGGAGGAGGUUUAUCGAAUUUUCGGCGGAUGCCUGCAAA | 0.000303 ± 5e-05
AUAAAAGCGACAGACCUACAGAAAUGUAGUUGACGAGGAGGAGGUAUAUCGAAUUUUCGGUGGACGCCUCCAAA | < 1e-05
AUAAAAGCGUCAGCACUACAGAAAUGUAGUUCACGAGGAGGAGGUUUAUCGAAUUUUCGGCGGAUGCCUCCAAA | < 1e-05
AUAAAAGCGCUAGAACUACAGAAAUGUAGUUGACGAGGAGGAGGUUUAACGGAUUUUCGGCGGAUGCCUCCAAA | < 1e-05
AUAAAAGCGCCCGUACUACAGAAAUGUAGUUGACGAGGAGGAGGUUUAUCGACUUUUCGGCGGAUGCCUCCAAA | 8.51e-05 ± 4e-05
AUAAAAGCGCAAGCACUACAGAAAUGUAGUUGACGAGGAGGAGGUUUAUCGAAUUUUCGGCGGAUGCCUUCAAA | 7.46e-05 ± 2.7e-05
AUAAAAGCGCAAGAACUACAGAAAUGUAGUUGACGAGGAGGAUGUUUAUCGAAGUUUCGGCGGAUGCCUCCAAA | < 1e-05
AUAAAAGCGACAGAACUACAGAAAUGUAGUUGACGAGGAGGAGGUUUAUCUAAUUUUCGGCGGAUGGCUCCAAA | 0.000109 ± 5.4e-05
AUAAAAGCGACAGAAGUACAGAAAUGUAGUUGACGAGGAGGAGGUUUAUAGAAUUUUGGGUGGAUGCCUCCAAA | 6.15e-05 ± 1.9e-05
AUAAAAGCGCGAAAAGUACAGAAAUGUACUUGACGACGAGGAGGUUUAUCGAGUUUUCGGCGGAUGCCUCCAAA | < 1e-05
AUAAAAGCGCUAGCAAUACAGAAAUGUAGUUGACGAGUAAGAGGUUUAUGGAAUUUUCGGCGGAUGCCUCCAAA | 6.83e-05 ± 2.4e-05
AUAAAAGCGCUAGAACUACAGAAAUGUAGUUCACGAGGAGGAGGUUUAUGGAAUUUUCGGGGGAUGCCUCCAAA | 0.000267 ± 7.4e-05
AUAAAAGCGCGAGAUCUACAGAAAUGUAGUUGACGAGGAGGUGGUCUAUCGAAUUUUCGGCGGAUGCCUCCAAA | < 1e-05
AUAAAAGCGGCAGAACUACAGAAAUGUAGUUGACGAGGAAGAGGUUUAUCGAAUUUUCGUCGGAUGCCUCCAAA | < 1e-05

Variant | self-cleavage kobs at 2500 uM GlcN6P [s⁻¹]
AUAAAAGCGCCCGGACUACAGAAAUGUAGUUGACGAGGACGAGGUUUAUCGAAUUGUCGGCGGAUGCUUCCAAA | < 1e-05
AUAAAAGCUCCAGAACUACAGAAAUGUAGUUGACGAGGAGCAGGUUUAUCGAAUUUUCAGCGGAUGCCUCUAAA | < 1e-05
AUAAAAGCGGCAGAACUACAGAAAUGUAGUUGACGCGGAGGAGGUUUAUCGAAUUUUCGCCGGAUGCCUUCAAA | < 1e-05
AUAAAAGCGUCAGAACUACAGAAAUGUACUUGACGAGGAGGAGGUUUAUCGAAUUUUCGGCCGAUGCCUCCAAA | < 1e-05
AUAAAAGCGCUAGAACUACAGAAAUGUAGUUGACGAGGAGGAGCUUUAUCGUAUUUUCGCCGGAUGCCUCCAAA | < 1e-05
AUAAAAGCUCCAGAACUACAGAAAUGUAGUUGACGAGCAUGACGUUUAUCGAAUUUUCGGCGGAUGCCUCCAAA | < 1e-05
AUAAAAGCGCUAGAACUACAGAAAUGUACUUGACGAGGAGGAGUUUUAUCGAAUUUUCGGCGUACGUCUCUAAA | < 1e-05
AUAAAAGCGCUAGAACUACAGAAAUGUAGUUGACGAGGAGGAGGUUUACCGAAUUGUCGGCGGAUGCCUCCAAA | < 1e-05
AUAAAAGCGCGAGAACUACAGAAAUGUAGUUGACGAGGAGGAGGUUUAUUGAAUUUUCGGUGGAUGCCUGCAAA | 0.000127 ± 3.7e-05
AUAAAAGCGUCAUAACUACAGAAAUGUAGUUGACGAGGAGGAGGUUUAUCGAAUUUUCGGCGGCUGCCUCCAAA | < 1e-05
AUAAAAGCGCUAGAACUACAGAAAUGUAGUUGACGAGGAGGAGGUUUUUCGAAUUUUCGUCGGAUGCCUCCAAA | < 1e-05
AUAAAAGCGCAAGAACUACAGAAAUGUAGUUGACGAGGAGGAGGUUUAUCUAAUAUUCGGCAGAUGCCUCCAAA | < 1e-05
AUAAAAGCGUCAGAGCUACAGAAAUGUAGUAUACGAGGAGGAGGUUUAUCGAAUUUUCGGCGGAGGCCUCCAAA | < 1e-05
AUAAAAGCGCGAGAACUACAGAAAUGUAGUUGACGAAGAGGAGGUUUAUCGAAUUUUCGUCGCAUGCCCUCAAA | < 1e-05
AUAAAAGCGGCAGAACUACAGAAAUGUAGUUGAGGAGGAGGAGGUUUCUCGAAUUUUCGGCGGAUGCCUCCAAA | < 1e-05
AUAAAAGCGCUAGAACUAAAGAAAUGUAGUUGACGAGGAGGAGGUUUAUCGAAUUUUCGGCGGAUGCCUCCAAA | 0.000235 ± 0.0001
AUAAAAGCGCAAGAACUACAGAAAUGUAGUUGACGAGGAGGAGGUUUAUCGAAAUAUCUGCGGAUGCCUCCAAA | 0.00154 ± 0.00068

Variants of: B1
Assay: self-cleavage kobs at 10000 uM GlcN6P; higher = faster cleavage; RNA array
Settings: with glucosamine-6-phosphate
Method in brief: as §1

Variant | self-cleavage kobs at 10000 uM GlcN6P [s⁻¹]
AUAAAAGCGCUAGGACUACAGAAAUGUAGUUGACGAGGAGGAGGUUUAUCGAAUUUUCGGCGGAUGCCUGCAAA | 0.000165 ± 3.1e-05
AUAAAAGCUCCAGAACUACAGAAAUGUAGUUGACGAGGAGCAGGUUUAUCGAAUUUUCAGCGGAUGCCUCUAAA | < 1e-05
AUAAAAGCGCGAGAACUACAGAAAUGUAGUUGACGAGGAGGAGGUUUAUUGAAUUUUCGGUGGAUGCCUGCAAA | 3.43e-05 ± 1.4e-05
